US20190248902A1 (published 2019)

T1: Soluble ASGR-1 (human, UniProt P07306 62-291, biotinylated)
T1 construct: Soluble recombinant protein; also called recombinant, soluble ASGR-1 biotinylated protein
T1 sequence: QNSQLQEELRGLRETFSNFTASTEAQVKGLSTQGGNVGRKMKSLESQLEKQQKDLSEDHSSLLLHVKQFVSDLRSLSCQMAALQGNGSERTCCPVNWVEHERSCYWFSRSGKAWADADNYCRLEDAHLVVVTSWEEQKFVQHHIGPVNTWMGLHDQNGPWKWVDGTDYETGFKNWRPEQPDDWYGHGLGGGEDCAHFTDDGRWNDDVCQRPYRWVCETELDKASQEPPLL

T2: Cyno ASGR-1 (cynomolgus monkey, UniProt P07306 1-291 (human entry))
T2 construct: Expressed on HEK 293 cells or as membrane prep on beads; cDNA from XP_005582755; also called cynomologus monkey ASGR-1
T2 chain: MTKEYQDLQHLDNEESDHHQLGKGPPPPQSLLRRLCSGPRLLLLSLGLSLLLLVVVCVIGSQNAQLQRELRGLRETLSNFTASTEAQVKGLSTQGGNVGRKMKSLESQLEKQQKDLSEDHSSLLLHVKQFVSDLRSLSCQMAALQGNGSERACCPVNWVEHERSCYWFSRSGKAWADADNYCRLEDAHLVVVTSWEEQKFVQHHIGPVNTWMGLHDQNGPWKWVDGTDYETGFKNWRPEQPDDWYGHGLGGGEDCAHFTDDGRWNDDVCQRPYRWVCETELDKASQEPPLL


Tests used:
[1] = biological target: T1, Soluble ASGR-1; experiment: limited antigen binding assay; biotinylated soluble ASGR-1 coated at 2.5 ng/mL on LumAvidin beads, FACS
Experimental: To assess antibody and antigen interaction strength (relative binding affinity), ASGR-1 specific, ligand competing antibody hybridoma supernatants were tested in a limiting antigen binding assay. Titrated amounts of recombinant, soluble ASGR-1 biotinylated protein was incubated with streptavidin-coated LumAvidin Beads® for 45 minutes in the dark at room temperature and washed twice. Beads were resuspeneded in FACS buffer containing Stabilguard® and 0.05% Sodium Azide. Antigen-bound beads were then incubated with normalized hybridoma supernatant sample or controls for 18 hours in the dark at room temperature, washed twice, incubated with Alexa Fluor® 488 IgG fragment-specific detection antibody for 15 minutes in the dark at room temperature, washed once and finally resuspended in FACS buffer. Samples were analyzed using an Intellicyt iQue™ Screener Platform. FACS buffer supplemented with 1 mM Calcium Chloride was used in all steps. […] In this assay method, the antibody binding signal correlates with antibody affinity. Antibody binding data for a representative antigen coating concentration that fell in the linear range of the instrument signal detection is shown in Table 7.2. The degree of antibody binding to the target (ASGR-1) correlates with the measured fluorescent intensity and thus allows a relative comparison of affinities across the panel.

[2] = biological target: T2, Cyno ASGR-1; experiment: FACS on transfected HEK 293 cells or membrane preps on beads; Y = signal at least 2x irrelevant IgG
Experimental: Human ASGR-1-specific, ligand competing antibody samples were tested for binding to ASGR-1 from other species (cynomologus monkey ASGR-1, mouse ASGR-1, rat ASGR-1, dog ASGR-1, and pig ASGR-1) as well as to human ASGR-2 in FACS binding assays at normalized antibody concentrations. For cell-based assays, HEK 293 cells expressing the appropriate antigen of interest were mixed with antibody sample or controls, incubated for 1 hour at 4° C., and then washed twice. Cells with bound antibody were then incubated with Alexa Fluor® 647 IgG Fc fragment-specific detection antibody and 7-AAD viability stain for 15 minutes at 4° C., washed once and resuspended in FACS buffer. Samples were analyzed using a BD Accuri™ Flow Cytometer and an Intellicyt HyperCyt Autosampler. As a negative control, supernatants and controls were also screened against HEK 293 cells transfected with empty parental vector. […] For membrane-prep binding assays, ASGR-1 species specific membrane preps were used to coat LumAvidin® microspheres (beads) and tested for binding to selected hybridoma supernatants or controls. Briefly, ASGR-1 species specific membrane preps were incubated with streptavidin-coated LumAvidin® beads for 45 minutes in the dark at room temperature and washed twice. Beads were resuspeneded in FACS buffer containing Stabilguard®. Antigen-bound beads were then incubated with normalized antibody sample for 1 hour in the dark at room temperature, washed twice, incubated with Alexa Fluor® 488 IgG Fc fragment-specific detection antibody for 15 minutes in the dark at room temperature, washed once and finally resuspended in FACS buffer. Samples were analyzed using an Intellicyt iQue™ Screener Platform. FACS buffer supplemented with 1 mM Calcium Chloride was used in all steps. As a negative control, supernatants and controls were also screened against a non-ASGR-1 antigen membrane prep coated on the LumAvidin® beads.

Binder | FACS Geomean [1] | binding result [2]
194A4 (antibody, V domains shown, Tested as hybridoma supernatant at normalized concentration) VH: QVQLVQSGTEVKKPGASLKVSCKASGYTFTVYYLNWVRQAPGQGLEWMGWINPNSGGTNYAQKFQGRVTMTRDTSISTAYMELSRLRSDDTAVYYCARGYDILTGWGQGTLVTVSS VL: EIVLTQSPGTLSLSPGERATLSCRASRGVSNIYLAWYQQKPGQAPRLLIYGASNRATGIPDRFSGSGSGTDFTLTISRLEPEDFAVYYCQHNDYSMFTFGPGTKVDIK | 38900 FACS Geomean | binds
194C10 (antibody, V domains shown, Tested as hybridoma supernatant at normalized concentration) VH: QVQLQQWGAGLLKPSETLSLTCAVSGGSFRYYYWSWIRQPPGKGLEWFGEINHSGSTNYNPSLKSRVTISIDTSKNQFSLKLRSVTAADTAVYYCARDYGAFDIWGQGTMVTVSS VL: EIVLTQSPGTLSLSPGERATLSCRASPSVNSGYLAWYQQKPGQTPRLLIFGASSRATGIPDRFSASGSGADFTLTISRLEPEDFAVYFCQQYESSPWTFGQGTKVEIK | 21900 FACS Geomean | binds
25A4 (antibody, V domains shown, Tested as hybridoma supernatant at normalized concentration) VH: QVLLVQSGAEVKRPGASVKVSCKASGYTFTNYDINWVRQATGQGLEWMGWMYPNSGNTGYAQKFQGRVTMTRNTSISTAYMELSSLRSEDTAVYYCASSSGWYYFDYWGQGTLVTVSS VL: DIVMTQFPDSLAVSLGERATIKCKSSQSVLYSSHNNNYLAWYQQKPGQPPKLLLYWASTRESGVPDRFSGSGSGTEFTLTISSLEAEDVAVYYCQQYYSTPPTFGQGTKVEIK | 18000 FACS Geomean | binds
4A2 (antibody, V domains shown, Tested as hybridoma supernatant at normalized concentration) VH: QVQLVQSGTEVKKPGASVKVSCKASGYTFTNYDINWVRQATGQGLEWMGWMHPNSGNTGYAQKFQGRVTLTRNTSISTAYMELSSLRSEDTAVYYCASSSGWYYFDYWGQGTLVTVSS VL: DIVMTQSPDSLAVSLGERATINCKSSQSILHSSNNNNYLAWFQQKPGQPPKLLLYWASTRESGVPDRFSGSGSGTDFTLTISSLQPEDVAVYYCQQYYNTPVTFGPGTKVGIK | 16600 FACS Geomean | binds
26C4 (antibody, V domains shown, Tested as hybridoma supernatant at normalized concentration) VH: QVQLVQSGAEVKKPGASVKVSCKASGYTFTNYDINWVRQASGQGLEWMGWMNPNSGNTGYAQRFQGRVTMTRNTSINTAYMELSSLRSEDTAVYYCASSSGWYYFDYWGQGTLVTVSS VL: not shown | 12000 FACS Geomean | binds
29H8 (antibody, V domains shown, Tested as hybridoma supernatant at normalized concentration) VH: QVQLVQSGAEVQKPGASVKVSCKASGYTFTNYDINWVRQATGQGLEWMGWMNPNSGNTGYAQRFQGRVTMTRNTSISAAYMELSSLRSEDTAVYYCASSSGWYYFDYWGQGTLVTVSS VL: not shown | 12200 FACS Geomean | binds
176H4 (antibody, V domains shown, Tested as hybridoma supernatant at normalized concentration) VH: QVQLVESGGGVVQPGRSLRLSCAASGFTFSSYGMHWVRQAPGKGLEWVAIIWYDGSYKYYADSVKGRFTISRDNSKNTLYLQMSSLRAEDTAVYYCARDAHDFWSGYFAYWGQGALVTVSS VL: DIVMTQTPLSLSVTPGQPASISCKSSQSLLHGDGKTYLYWYLQKPGQPPQLLIYEVSNRFSGVPDRFSGSGSGTDFTLKISRVEAEDVGIYYCMQSIQIPWTFGQGTRVEIK | 29400 FACS Geomean | binds
184E7 (antibody, V domains shown, Tested as hybridoma supernatant at normalized concentration) VH: QVQLVQSGAEVKTPGASVKVSCRASGYTFTSYNMHWVRQVPGQGLEWMGWINPNNGGSNYTQKFQGRVTMTRDTSISTAYMELSRLRSDDTAVYYCARKFGDWGQGTLVTVSS VL: DIQMTQSPSSRSASIGERVTITCRASQGISNYLAWIQQKPGTAPKSLIYAASSLQSGVSSRFSGSGFGTDFTITISSVQREDFATYYCQQYNGYPFTFGHGTKVDIK | 40200 FACS Geomean | binds
4B1 (antibody, V domains shown, Tested as hybridoma supernatant at normalized concentration) VH: QVQLQESGPGLVKPSETLSLTCSVSGDSISSYSWSWIRQPAGKGLEWIGRIYTSGSTNYIPSLKSRITMSVDTSKKQFSLKLSSVTAADTAVYYCARDLKSSGCLFFDYWGQGTLVTVSS VL: DIQMTQSPSSLSASVGDRVTITCRASHTIRTYLNWYQQKPGKAPKLLIYAASSLQSGVPSRINGSGSGTDFTLTITNLQPEDFATYYCQQSYNISFTFGPGTKVDIK | 10100 FACS Geomean | binds
12D2 (antibody, V domains shown, Tested as hybridoma supernatant at normalized concentration) VH: EVQLVESGGGLVKPGGSLRLSCAASGFTFSSYSMNWVRQAPGKGLEWVSSISSSSSYIYYADSVKGRFTISRDNAKNSLYLQMNSLRAEDTAVYYCARLGDYWGQGTLVAVSS VL: not shown | 105 FACS Geomean | binds
4H6 (antibody, V domains shown, Tested as hybridoma supernatant at normalized concentration) VH: QVQLVQSGAEVKKPGASVKVSCKASGYTFTDYYLHWVRQAPGQGLEWMGWIHPNSGGTNYAQKFQGRVTMTRDTSISTAYMGLSSLRSDDTAVYYCARDGTSSFDYWGQGTLVTVSS VL: DIQMTQSPSSVSASVGDRVTITCRASQGISRWLAWYQQKPGKAPKLLIYGASSLQSGVPSRFSGSGSGTDFTLTISSLQPEDFAIYYCQQANSFPFTFGPGTKVDIK | 2990 FACS Geomean | binds
56E5 (antibody, V domains shown, Tested as hybridoma supernatant at normalized concentration) VH: QVQLVQSGAEVKKPGASVKVSCQASGYTFTGYHMHWVRQAPGQGLEWMGWINPNNNATNYAQKFQGRVTMTRDTSISTAYMELRRLRSDDTAVYHCARDGTSSFDYWGQGTLVTVSS VL: DIQMTQSPSSVSASVGDRVTITCRASQGIRKWLAWYQQKPGKAPKLLIYAASSLQSGVPSRFSGSGSGTDFTLTISSLQPEDFATYYCQQANSFPFTFGPGTKVDIK | 22600 FACS Geomean | binds
72G9 (antibody, V domains shown, Tested as hybridoma supernatant at normalized concentration) VH: EVQLVESGGGLVKPGGSLRLSCAASGFTFSSYSMNWVRQAPGKGLEWVSSISGSSSYIYYADSVKGRFTISRDNAKNSLYLQMNSLRAEDTAVYFCARGGSRGFDPWGQGTLVTVSS VL: DIQMTQSPSSLSASVGDRVTITCRASQSITSYLNWYQQKPGKAPKLLIYTASSLQSGVPSRFSGSGSGTDFTLTISSLQPEDFATYYCQQSHSFPFTFGPGTKVDIK | 34000 FACS Geomean | binds
48B12 (antibody, V domains shown, Tested as hybridoma supernatant at normalized concentration) VH: EVQLLESGGGLVQPGGSLRLSCAASGFTFSSYAMNWVRQAPGKGLEWVSAISGRGGNTFYADSVKGRFTISRDNSKNTLYLQMNSLRAEDTAVYYCAKRETYNWNYEGFDYWGQGTLVTVSS VL: SYELTQPPSVSVSPGQTARITCSGDALPKKYAYWYQQKSGQAPVLVIYEDSKRPSGIPERFSGSSSGTMATLTISGAQVEDEADYYCNSTDSSGNHVVFGGGTKLTVL | 27000 FACS Geomean | binds
